Data published in US20060069055.

How the values were obtained:
Test in all cases: EMSA
[1] = target: T1, NF-kB p50/p50 homodimer (Homo sapiens) (UniProt P19838); conditions: score 100 = less than 50% competition at any ratio tested
T1 sequence: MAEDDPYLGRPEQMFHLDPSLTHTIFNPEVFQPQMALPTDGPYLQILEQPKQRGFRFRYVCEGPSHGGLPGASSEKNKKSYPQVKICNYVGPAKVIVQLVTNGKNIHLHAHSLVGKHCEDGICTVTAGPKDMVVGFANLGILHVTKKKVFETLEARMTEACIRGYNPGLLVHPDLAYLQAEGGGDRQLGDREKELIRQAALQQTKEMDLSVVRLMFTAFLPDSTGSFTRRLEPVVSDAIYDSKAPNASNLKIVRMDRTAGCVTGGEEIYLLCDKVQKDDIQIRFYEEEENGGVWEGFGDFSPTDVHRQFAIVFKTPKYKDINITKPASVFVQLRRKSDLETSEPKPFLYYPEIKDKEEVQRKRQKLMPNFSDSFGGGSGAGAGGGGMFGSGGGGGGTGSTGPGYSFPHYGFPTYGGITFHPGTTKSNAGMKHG

[2] = target: NF-kB p65/p50 heterodimer (Homo sapiens) (UniProt Q04206+P19838); conditions: 50% competition not reached; same for p50/p50
Sequence of NF-kB p65/p50 heterodimer (Homo sapiens) (Q04206 whole entry, one chain of several): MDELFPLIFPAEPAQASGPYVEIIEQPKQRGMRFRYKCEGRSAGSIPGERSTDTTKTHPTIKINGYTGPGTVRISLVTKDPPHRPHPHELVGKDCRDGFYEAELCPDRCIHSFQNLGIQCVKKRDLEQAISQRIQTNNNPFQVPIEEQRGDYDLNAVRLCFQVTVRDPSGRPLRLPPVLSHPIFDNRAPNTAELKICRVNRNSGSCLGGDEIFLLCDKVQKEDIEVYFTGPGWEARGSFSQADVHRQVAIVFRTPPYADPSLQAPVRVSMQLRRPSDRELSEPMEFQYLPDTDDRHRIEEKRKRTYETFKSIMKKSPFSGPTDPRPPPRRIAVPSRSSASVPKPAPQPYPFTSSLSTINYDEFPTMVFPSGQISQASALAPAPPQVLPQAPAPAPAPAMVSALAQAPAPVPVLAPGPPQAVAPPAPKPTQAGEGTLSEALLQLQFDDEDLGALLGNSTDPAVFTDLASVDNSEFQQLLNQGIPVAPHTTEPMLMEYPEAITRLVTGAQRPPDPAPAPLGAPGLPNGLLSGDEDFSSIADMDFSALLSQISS

[3] = test system: E2F

AGTTGAGACTTTCGCAGGC (double strand) [decoy 159 G-Z]
IC50 (fold molar excess) [1]: > 100
IC50 [2]: 100 score

CTAGATTTCCCGCG (double strand) [E2F reference decoy]
binding signal (% competition at 10-fold excess) ([3]; 40% at 40-fold excess): 7

CTAGATTTCCCGCGGATC (double strand) [E2F novel decoy]
binding signal (% competition at 10-fold excess) ([3]; 90% at 40-fold excess): > 60
